Source: the RNAGym collection of RNA variant scans (doi:10.1073/pnas.2313332121)

B1: TPR t1 (parent)
chain: GACCAAUCUGCCCUCAGAGCUCGAGAACAUCUUCGGAUGCAGAGGAGGCAGGCUUCGGUGGCGCGAUAGCGCCAACGUCCUCAACCUCCAAUGCAUCCCACCACAUGAUGAUGCCUGAAGAGCCUUGGUUUUUUG

Variants of: B1
Experiment: polymerase ribozyme fitness, log enrichment relative to wild type (log ratio); higher = more active; in vitro selection for triplet polymerase activity
Procedure, shortened: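 The heterodimeric triplet polymerase ribozyme's subunits were each mutagenized into PCR-built libraries and transcribed. Every library was selected once, in triplicate, by annealing with a biotinylated primer, the partner subunit and triplets, incubating frozen at −7 °C, gel-excising extended constructs, capturing on streptavidin beads and running RT-PCR. Input and output libraries were Illumina-sequenced, with genotypes kept only at ≥10 input reads and ≥1 read per output. Fitness, from inverse-variance-weighted replicate averages, is the base-2 logarithm of genotype enrichment over wild-type enrichment.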

Q: With A18G C28A U112A as the variant, how does the “polymerase ribozyme fitness (log ratio)” value read?
A: -4.92

Q: With G19A C124A U129C as the variant, how does the “polymerase ribozyme fitness (log ratio)” value read?
A: -2.22

Q: For A18U C70U U112C, which “polymerase ribozyme fitness (log ratio)” value is on record?
A: -1.2

Q: Which “polymerase ribozyme fitness (log ratio)” value does the source give for G19U C89U G120C here?
A: -2.25

Q: With G19C C40A C85U U112A as the variant, how does the “polymerase ribozyme fitness (log ratio)” value read?
A: -2.1

Q: For G19A C72U A75U C114A, which “polymerase ribozyme fitness (log ratio)” value is on record?
A: -2.05

Q: For G19U G45U A111C, which “polymerase ribozyme fitness (log ratio)” value is on record?
A: -4.74

Q: For A18U G39U C73U C85G, which “polymerase ribozyme fitness (log ratio)” value is on record?
A: -4.26

Q: For A18C C82A A84U, which “polymerase ribozyme fitness (log ratio)” value is on record?
A: -3.72

Q: Which “polymerase ribozyme fitness (log ratio)” value does the source give for C20A A84U A90G C98G U109A A121U here?
A: -3.83

Q: For G19A G60A C114A, which “polymerase ribozyme fitness (log ratio)” value is on record?
A: -1.62

Q: With C20G U32A C53G U54C G57U C97G G113A as the variant, how does the “polymerase ribozyme fitness (log ratio)” value read?
A: -6.61

Q: Which “polymerase ribozyme fitness (log ratio)” value does the source give for C20A C22A G69U U81G U96G A121U here?
A: -5.24

Q: Which “polymerase ribozyme fitness (log ratio)” value does the source give for G19C G42C C124G here?
A: -0.406

Q: For C20A C115U, which “polymerase ribozyme fitness (log ratio)” value is on record?
A: -3.52

Q: Which “polymerase ribozyme fitness (log ratio)” value does the source give for C20G A37U C62G C70U U112A here?
A: -6.02

Q: Which “polymerase ribozyme fitness (log ratio)” value does the source give for A18U C40G A83U here?
A: -4.16

Q: Which “polymerase ribozyme fitness (log ratio)” value does the source give for C20A A41C C82A here?
A: -4.5

Q: Which “polymerase ribozyme fitness (log ratio)” value does the source give for A18U C40G here?
A: -4.04

Q: With A18C C62G U87C A90C G110C C115A as the variant, how does the “polymerase ribozyme fitness (log ratio)” value read?
A: -7

Q: With C20A U131A as the variant, how does the “polymerase ribozyme fitness (log ratio)” value read?
A: -3.53

Q: For C20G U55C G57A A90G, which “polymerase ribozyme fitness (log ratio)” value is on record?
A: -5.05

Q: For A18U G71A, which “polymerase ribozyme fitness (log ratio)” value is on record?
A: -2.85

Q: Which “polymerase ribozyme fitness (log ratio)” value does the source give for A18C A43G C114U U129C here?
A: -3.16

Q: For G19U U54G A68G C70G G117C, which “polymerase ribozyme fitness (log ratio)” value is on record?
A: -5.56

Q: For A18C A43U, which “polymerase ribozyme fitness (log ratio)” value is on record?
A: 0.3

Q: With A18G G23A C53U U59C C79A G117C U133C as the variant, how does the “polymerase ribozyme fitness (log ratio)” value read?
A: -5.37

Q: For C20A C56A C72G A90G, which “polymerase ribozyme fitness (log ratio)” value is on record?
A: -4.82

Q: Which “polymerase ribozyme fitness (log ratio)” value does the source give for A18U G57U A100C G120C here?
A: -5.42

Q: For C20A G36U G77U U116C, which “polymerase ribozyme fitness (log ratio)” value is on record?
A: -5.13

Q: For A18G G52C, which “polymerase ribozyme fitness (log ratio)” value is on record?
A: -3.49

Q: With C20U A26U U32C G69U as the variant, how does the “polymerase ribozyme fitness (log ratio)” value read?
A: -3.17

Q: With G19C C20A as the variant, how does the “polymerase ribozyme fitness (log ratio)” value read?
A: -6.28

Q: With C20A G51C C56A C79U U106A A121U as the variant, how does the “polymerase ribozyme fitness (log ratio)” value read?
A: -7.26

Q: With C20A C49U C72U U78C as the variant, how does the “polymerase ribozyme fitness (log ratio)” value read?
A: -3.44

Q: Which “polymerase ribozyme fitness (log ratio)” value does the source give for G19C C72A C124A U129G here?
A: -0.719

Q: For G19A C62A C82A G93U U112A, which “polymerase ribozyme fitness (log ratio)” value is on record?
A: -2.13

Q: Which “polymerase ribozyme fitness (log ratio)” value does the source give for C20U A83C U112G here?
A: -2.09

Q: Which “polymerase ribozyme fitness (log ratio)” value does the source give for A18G C70U here?
A: -2.4

Q: With A18U G117C as the variant, how does the “polymerase ribozyme fitness (log ratio)” value read?
A: -4.12

Q: With G19U A43U G60C C82G as the variant, how does the “polymerase ribozyme fitness (log ratio)” value read?
A: -3.71

Q: For C20A C88G, which “polymerase ribozyme fitness (log ratio)” value is on record?
A: -3.11

Q: Which “polymerase ribozyme fitness (log ratio)” value does the source give for A18U C114U here?
A: -3.74

Q: For A18U A75U C76G U129G, which “polymerase ribozyme fitness (log ratio)” value is on record?
A: -5.7

Q: Which “polymerase ribozyme fitness (log ratio)” value does the source give for A18C G58C here?
A: -2.1

Q: Which “polymerase ribozyme fitness (log ratio)” value does the source give for C20G C123A here?
A: -4.02

Q: Which “polymerase ribozyme fitness (log ratio)” value does the source give for G19C G63A U87C here?
A: -3.24

Q: Which “polymerase ribozyme fitness (log ratio)” value does the source give for C20A U106A C124A here?
A: -1.85

Q: With C20U C40U G60U C82A U96A C124A as the variant, how does the “polymerase ribozyme fitness (log ratio)” value read?
A: -1.54

Q: With A18U U87G G120A as the variant, how does the “polymerase ribozyme fitness (log ratio)” value read?
A: -1.48

Q: With A18C U78A U112G G122U as the variant, how does the “polymerase ribozyme fitness (log ratio)” value read?
A: -4.43

Q: With C20A G63A C94A U112A as the variant, how does the “polymerase ribozyme fitness (log ratio)” value read?
A: -2.57

Q: With G19C U55A C64U A66U C104U as the variant, how does the “polymerase ribozyme fitness (log ratio)” value read?
A: -3.86

Q: Which “polymerase ribozyme fitness (log ratio)” value does the source give for G19C C40U G48U G110C here?
A: -6.52

Q: Which “polymerase ribozyme fitness (log ratio)” value does the source give for A18U C72G U130A here?
A: -4.54

Q: Which “polymerase ribozyme fitness (log ratio)” value does the source give for G19C A37U C124U here?
A: -1.48

Q: With G19A G69U as the variant, how does the “polymerase ribozyme fitness (log ratio)” value read?
A: -1.71

Q: For G19A G69A, which “polymerase ribozyme fitness (log ratio)” value is on record?
A: -4.57

Q: Which “polymerase ribozyme fitness (log ratio)” value does the source give for C20A G57U C97A C115A U116C here?
A: -6.48

Q: With C20A U54A U131G as the variant, how does the “polymerase ribozyme fitness (log ratio)” value read?
A: -3.27

Q: With A18G U54A G77A U109G as the variant, how does the “polymerase ribozyme fitness (log ratio)” value read?
A: -3.13

Q: With C20A A24U U54A C115G as the variant, how does the “polymerase ribozyme fitness (log ratio)” value read?
A: -6.69

Q: With A18C C56G C72U as the variant, how does the “polymerase ribozyme fitness (log ratio)” value read?
A: -1.24

Q: Which “polymerase ribozyme fitness (log ratio)” value does the source give for C20A C40U U59A G117U G128C here?
A: -4.96

Q: With C20U C28A as the variant, how does the “polymerase ribozyme fitness (log ratio)” value read?
A: -3.79

Q: With G19C C62U C64U G120C as the variant, how does the “polymerase ribozyme fitness (log ratio)” value read?
A: -2.12

Q: Which “polymerase ribozyme fitness (log ratio)” value does the source give for C20G G35U A95C G117U here?
A: -4.02

Q: For C20G C40U, which “polymerase ribozyme fitness (log ratio)” value is on record?
A: -2.61

Q: Which “polymerase ribozyme fitness (log ratio)” value does the source give for C20A G45C here?
A: -3.43

Q: With G19U G48U C79A C85A G120C U130C as the variant, how does the “polymerase ribozyme fitness (log ratio)” value read?
A: -5.41

Q: With A18U C31U as the variant, how does the “polymerase ribozyme fitness (log ratio)” value read?
A: -5.66

Q: For G19A C49U G113U, which “polymerase ribozyme fitness (log ratio)” value is on record?
A: -2.65

Q: Which “polymerase ribozyme fitness (log ratio)” value does the source give for G17U G71U here?
A: -2.1

Q: With C20A U32G G35C U59G G61A A74C as the variant, how does the “polymerase ribozyme fitness (log ratio)” value read?
A: -4.63

Q: For A18U G39U G61U C97U U130A, which “polymerase ribozyme fitness (log ratio)” value is on record?
A: -4.49

Q: Which “polymerase ribozyme fitness (log ratio)” value does the source give for A18U G36A A50G here?
A: -3.46

Q: With A18G C101G G117C as the variant, how does the “polymerase ribozyme fitness (log ratio)” value read?
A: -4.66

Q: With G19A G77C as the variant, how does the “polymerase ribozyme fitness (log ratio)” value read?
A: -2.48

Q: With C20U A37G C102A as the variant, how does the “polymerase ribozyme fitness (log ratio)” value read?
A: -3.43

Q: Which “polymerase ribozyme fitness (log ratio)” value does the source give for A18C C62U U87C here?
A: -3.61

Q: Which “polymerase ribozyme fitness (log ratio)” value does the source give for A18G G19A U96C C115A here?
A: -4.42

Q: For C20G G71C, which “polymerase ribozyme fitness (log ratio)” value is on record?
A: -5.08

Q: With G19A U32A A84U as the variant, how does the “polymerase ribozyme fitness (log ratio)” value read?
A: -6.42
